Test results taken from IntAct's records for PubMed 24338975.

B1: G-rich sequence factor 1 (Homo sapiens), Q12849 (parent)
chain: MAGTRWVLGALLRGCGCNCSSCRRTGAACLPFYSAAGSIPSGVSGRRRLLLLLGAAAAAASQTRGLQTGPVPPGRLAGPPAVATSAAAAAAASYSALRASLLPQSLAAAAAVPTRSYSQESKTTYLEDLPPPPEYELAPSKLEEEVDDVFLIRAQGLPWSCTMEDVLNFFSDCRIRNGENGIHFLLNRDGKRRGDALIEMESEQDVQKALEKHRMYMGQRYVEVYEINNEDVDALMKSLQVKSSPVVNDGVVRLRGLPYSCNEKDIVDFFAGLNIVDITFVMDYRGRRKTGEAYVQFEEPEMANQALLKHREEIGNRYIEIFPSRRNEVRTHVGSYKGKKIASFPTAKYITEPEMVFEEHEVNEDIQPMTAFESEKEIELPKEVPEKLPEAADFGTTSSLHFVHMRGLPFQANAQDIINFFAPLKPVRITMEYSSSGKATGEADVHFETHEDAVAAMLKDRSHVHHRYIELFLNSCPKGK

Variants of: B1
Conditions: with psd10_human PSMD10, O75832
Chain of psd10_human PSMD10, O75832 (O75832 whole entry): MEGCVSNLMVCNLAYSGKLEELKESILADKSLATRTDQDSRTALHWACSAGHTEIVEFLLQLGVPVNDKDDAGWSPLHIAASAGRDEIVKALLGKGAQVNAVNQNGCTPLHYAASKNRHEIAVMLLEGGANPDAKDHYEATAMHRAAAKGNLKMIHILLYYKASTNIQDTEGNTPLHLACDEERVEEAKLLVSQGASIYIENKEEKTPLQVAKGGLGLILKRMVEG

Row | Variant | effect of a mutation on the interaction
1 | MAGTRWVLGALLRGCGCNCSSCRRTGAACLPFYSAAGSIPSGVSGRRRLLLLLGAAAAAASQTRGLQTGPVPPGRLAGPPAVATSAAAAAAASYSALRASLLPQSLAAAAAVPTRSYSQESKTTYLEDLPPPPEYELAPSKLEAAVADVFLIRAQGLPWSCTMEDVLNFFSDCRIRNGENGIHFLLNRDGKRRGDALIEMESEQDVQKALEKHRMYMGQRYVEVYEINNEDVDALMKSLQVKSSPVVNDGVVRLRGLPYSCNEKDIVDFFAGLNIVDITFVMDYRGRRKTGEAYVQFEEPEMANQALLKHREEIGNRYIEIFPSRRNEVRTHVGSYKGKKIASFPTAKYITEPEMVFEEHEVNEDIQPMTAFESEKEIELPKEVPEKLPEAADFGTTSSLHFVHMRGLPFQANAQDIINFFAPLKPVRITMEYSSSGKATGEADVHFETHEDAVAAMLKDRSHVHHRYIELFLNSCPKGK [E144A;E145A;D147A] | disrupting interaction strength
